Experimental data as given in article PMC10163693, “The oncogenic role of NF1 in gallbladder cancer through regulation of YAP1 stability by direct interaction with YAP1” (Journal of Translational Medicine, 2023).
One block for each binder: values may come before it.

How the values were obtained:
Conditions in all cases: both partners purified
[1] = target: T1, YAP1^WW1 (as used in ITC) (UniProt P46937 174-204); experiment: ITC; 25 °C, PEAQ-ITC; 10 mM NF1^PPQY peptide injected (20 injections of 2 μl) into 1 mM YAP1^WW1 or YAP1^WW2; 10 mM Tris pH 8.0, 100 mM NaCl; one-site binding model
T1 construct: Yes-associated protein 1 (YAP1), first WW domain; the label YAP1^WW1 is defined as residues 174-204 in the pull-down methods; The ITC methods name only YAP1^WW1

[2] = target: T2, YAP1^WW2 (as used in ITC) (UniProt P46937 227-266); experiment: as above
T2 construct: Yes-associated protein 1 (YAP1), second WW domain; the label YAP1^WW2 is defined as residues 227-266 in the pull-down methods; The ITC methods name only YAP1^WW2

[3] = target: T3, GST-NF1^PPQY (residues 2665-2687) (UniProt P21359-2 2665-2687); experiment: pull-down; GST, GST-NF1^PPQY or GST-NF1^AAAA prebound on Glutathione Sepharose beads; increasing amounts of His-Sumo-YAP1^WW1 or His-Sumo-YAP1^WW2 added; 20 mM Tris pH 8.0, 150 mM NaCl, 2 h, 4 °C; eluted with 10 mM GSH; SDS-PAGE, Coomassie blue
T3 construct: Neurofibromin 1 (NF1), residues 2665-2687, holds the PPQY motif; also called GST-tagged NF1^PPQY; source: purified; not shown: GST, N-terminal, kept
T3 chain (looked up): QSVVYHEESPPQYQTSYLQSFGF

Kd [1]: 320 µM | Kd [2]: 346 µM
B1: NF1^PPQY peptide (residues 2671-2680: EESPPQYQTS) (peptide)
peptide: EESPPQYQTS
notes: also called NF1 peptides; source: synthetic peptide (Scilight-Peptide, China)

binding result [3]: binds
B2: His-Sumo-YAP1^WW2 (residues 227-266) (domain or fragment, UniProt P46937 227-266, looked up)
chain: SASGPLPDGWEQAMTQDGEIYYINHKNKTTSWLDPRLDPR
notes: Yes-associated protein 1 (YAP1), second WW domain, residues 227-266; source: purified; not shown: His, N-terminal, kept; Sumo, N-terminal, kept

binding result [3]: binds
B3: His-Sumo-YAP1^WW1 (residues 174-204) (domain or fragment, UniProt P46937 174-204, looked up)
chain: PAGWEMAKTSSGQRYFLNHIDQTTTWQDPRK
notes: Yes-associated protein 1 (YAP1), first WW domain, residues 174-204; source: purified; not shown: His, N-terminal, kept; Sumo, N-terminal, kept
